The target in test [1] is T1, human TfR extracellular domain with N-terminal His tag (human, UniProt P02786 89-760).
T1 construct: Biotinylated in some assays; also called huTfR; HuTfR
In words: SPR, TfR captured by anti-His, Fab injected.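 Also: single cycle kinetics with a Fab dilution series, fitted by a one-to-one Langmuir model or a steady state model, KD taken as koff over kon.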 Background: In SPR one partner is held on a chip, and binding of the other changes the refractive index at the surface.

Test [2] has as its target T2, cyno TfR extracellular domain (analogous construct to human TfR ecd) (cynomolgus monkey, UniProt Q5RDH6 87-760 (Pongo abelii entry)).
T2 construct: also called cynoTfR ecd
T2 chain: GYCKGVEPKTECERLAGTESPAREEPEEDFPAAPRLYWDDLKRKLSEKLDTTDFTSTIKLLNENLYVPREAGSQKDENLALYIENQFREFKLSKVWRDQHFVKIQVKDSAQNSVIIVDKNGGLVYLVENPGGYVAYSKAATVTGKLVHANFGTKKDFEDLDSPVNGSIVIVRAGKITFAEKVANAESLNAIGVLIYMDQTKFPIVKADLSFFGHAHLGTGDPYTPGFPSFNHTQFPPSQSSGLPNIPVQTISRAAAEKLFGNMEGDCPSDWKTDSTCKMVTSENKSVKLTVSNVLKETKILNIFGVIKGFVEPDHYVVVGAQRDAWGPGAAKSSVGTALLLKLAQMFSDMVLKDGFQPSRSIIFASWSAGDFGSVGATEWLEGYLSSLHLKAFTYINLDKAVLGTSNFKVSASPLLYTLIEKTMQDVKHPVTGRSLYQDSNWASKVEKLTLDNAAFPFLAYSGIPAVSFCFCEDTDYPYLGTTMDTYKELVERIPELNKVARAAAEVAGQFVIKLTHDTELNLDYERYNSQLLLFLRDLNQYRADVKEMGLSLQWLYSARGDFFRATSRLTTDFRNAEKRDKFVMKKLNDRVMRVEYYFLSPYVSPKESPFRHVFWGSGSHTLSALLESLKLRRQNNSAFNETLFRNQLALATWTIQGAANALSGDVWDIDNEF
Put plainly: SPR, TfR captured by anti-His, Fab injected.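 Also: single cycle kinetics with a Fab dilution series, fitted by a one-to-one Langmuir model or a steady state model, KD taken as koff over kon.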

The target of test [3] is T1, human TfR extracellular domain with …. In words: ELISA, IgG. (ELISA stands for enzyme-linked immunosorbent assay.)
Test [4] deals with T2, cyno TfR extracellular domain …. Put plainly: ELISA, IgG.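 Also: ELISA of IgG-containing supernatants tested in 1:5 serial dilutions for 1 h, bound antibody read out with HRP anti-kappa antibody and TMB substrate.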
For test [5], the target named is T3, human BACE1 ECD.
T3 construct: analyte of the Octet assay (200 nM) and enzyme of the first short substrate assay; also called human BACE1 extracellular domain
T3 sequence (single chain, as listed by the source limits assumed): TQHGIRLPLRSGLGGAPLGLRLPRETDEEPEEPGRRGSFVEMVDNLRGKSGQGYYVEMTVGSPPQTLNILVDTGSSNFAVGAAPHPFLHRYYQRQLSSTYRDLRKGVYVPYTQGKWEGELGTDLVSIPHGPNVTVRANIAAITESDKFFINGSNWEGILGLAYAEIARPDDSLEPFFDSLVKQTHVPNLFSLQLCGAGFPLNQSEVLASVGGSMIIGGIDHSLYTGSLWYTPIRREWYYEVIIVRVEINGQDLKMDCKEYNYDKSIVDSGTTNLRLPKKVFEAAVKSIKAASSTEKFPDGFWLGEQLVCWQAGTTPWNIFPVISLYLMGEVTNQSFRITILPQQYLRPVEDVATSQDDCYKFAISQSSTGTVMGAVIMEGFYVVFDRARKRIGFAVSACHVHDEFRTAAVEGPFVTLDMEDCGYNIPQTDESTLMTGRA
Put plainly: Octet, pH 7.5.

The target in test [6] is T4, murine BACE1 ECD.
T4 construct: analyte of the Octet assay (200 nM) and enzyme of the first short substrate assay
T4 sequence (single chain, as listed by the source limits assumed): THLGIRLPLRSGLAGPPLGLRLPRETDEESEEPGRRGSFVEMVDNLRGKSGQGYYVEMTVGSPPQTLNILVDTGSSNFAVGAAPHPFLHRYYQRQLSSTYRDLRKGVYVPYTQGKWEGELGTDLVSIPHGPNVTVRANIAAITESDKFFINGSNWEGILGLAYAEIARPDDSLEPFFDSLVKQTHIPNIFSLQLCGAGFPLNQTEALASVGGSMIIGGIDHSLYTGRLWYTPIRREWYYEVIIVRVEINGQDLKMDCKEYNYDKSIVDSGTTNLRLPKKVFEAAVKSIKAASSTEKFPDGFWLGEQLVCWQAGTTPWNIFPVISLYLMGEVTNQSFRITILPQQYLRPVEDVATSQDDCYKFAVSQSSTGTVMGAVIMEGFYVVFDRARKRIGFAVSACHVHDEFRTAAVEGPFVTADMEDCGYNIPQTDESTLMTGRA
In words: Octet, pH 7.5. (Biolayer interferometry detects binding as a change in optical thickness at a sensor tip.)

Test [7] addresses T3, human BACE1 ECD. In words: Octet, pH 5.0.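 Also: antibodies captured on anti-human capture sensor tips, dissociation monitored in PBS with BSA buffer, kinetics fitted with a one-to-one binding model.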
In test [8] the target is T4, murine BACE1 ECD. Put plainly: Octet, pH 5.0.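 Also: antibodies captured on anti-human capture sensor tips, dissociation monitored in PBS with BSA buffer, kinetics fitted with a one-to-one binding model.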
The target in test [9] is T5, BACE1 in primary mouse cortical neurons (mouse, UniProt P56818 46-501). In words: cell-based or functional assay.
T5 sequence (P56818 46-501): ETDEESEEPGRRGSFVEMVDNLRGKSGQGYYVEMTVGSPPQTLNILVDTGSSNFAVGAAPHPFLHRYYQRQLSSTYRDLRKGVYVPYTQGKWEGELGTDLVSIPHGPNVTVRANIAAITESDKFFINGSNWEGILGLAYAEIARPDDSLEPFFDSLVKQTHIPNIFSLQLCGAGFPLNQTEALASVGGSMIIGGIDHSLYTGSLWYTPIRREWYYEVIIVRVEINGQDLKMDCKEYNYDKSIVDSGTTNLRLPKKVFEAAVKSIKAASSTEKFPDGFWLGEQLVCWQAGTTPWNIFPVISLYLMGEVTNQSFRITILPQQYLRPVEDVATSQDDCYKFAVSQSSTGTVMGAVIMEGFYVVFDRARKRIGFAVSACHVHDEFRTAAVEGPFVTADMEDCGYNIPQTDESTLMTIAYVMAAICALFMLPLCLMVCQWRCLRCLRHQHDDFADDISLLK
The target in test [10] is BACE1 (HTRF long substrate and FRET short substrate assays of Example 9D). Put plainly: cell-based or functional assay.
Test [11] concerns the target T5, BACE1 in primary mouse cortical neurons. Put plainly: cell-based or functional assay. This is another data set of the same source.
The target in test [12] is T3, human BACE1 ECD. Put plainly: Octet, pH 5.0.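 Also: antibodies captured on anti-human capture sensor tips, dissociation monitored in PBS with BSA buffer, kinetics fitted with a one-to-one binding model.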 The source holds these as a separate data set.
For test [13], the target named is T3, human BACE1 ECD. Put plainly: Octet, pH 7.5. This is another data set of the same source.
Test [14] deals with T4, murine BACE1 ECD. In words: Octet, pH 7.5. This is another data set of the same source.

Substitutions are numbered along the chain they refer to. Names may count otherwise. Where two headings read alike, the source gives them in different places.

As a reminder, the Kd is the constant that tells how readily two partners part at equilibrium. The low end stands for a tighter complex, the high end for a looser complex. As usually defined, the koff is a measure of how fast the partners let go of each other. Read a high koff as a short-lived complex. By kon is commonly meant the second-order rate constant of association. Read a low kon as slow association. Usually EC50 stands for the concentration needed to bring the measured effect to its halfway point. Low values mean a more potent agent, high ones a less potent agent.

T1 sequence (P02786 89-760 G142S): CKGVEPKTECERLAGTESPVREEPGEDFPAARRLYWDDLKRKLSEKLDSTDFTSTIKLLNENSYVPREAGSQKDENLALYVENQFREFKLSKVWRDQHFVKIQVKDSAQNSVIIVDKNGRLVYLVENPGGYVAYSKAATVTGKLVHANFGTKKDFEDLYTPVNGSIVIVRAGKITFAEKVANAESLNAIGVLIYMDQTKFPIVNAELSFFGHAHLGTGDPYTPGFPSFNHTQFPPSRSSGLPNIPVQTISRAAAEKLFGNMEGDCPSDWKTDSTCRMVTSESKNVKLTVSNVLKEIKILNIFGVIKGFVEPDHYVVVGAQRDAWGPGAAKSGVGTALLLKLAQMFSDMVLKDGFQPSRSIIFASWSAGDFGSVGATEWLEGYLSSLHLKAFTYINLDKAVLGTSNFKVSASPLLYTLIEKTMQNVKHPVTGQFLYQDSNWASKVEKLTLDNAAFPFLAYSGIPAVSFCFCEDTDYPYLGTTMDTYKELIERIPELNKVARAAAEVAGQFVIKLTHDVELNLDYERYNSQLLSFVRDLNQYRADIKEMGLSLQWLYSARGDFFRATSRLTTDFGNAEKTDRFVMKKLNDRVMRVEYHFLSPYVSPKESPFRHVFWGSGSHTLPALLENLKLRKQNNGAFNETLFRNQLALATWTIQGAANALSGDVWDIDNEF

B1: Hu15G11.v1.Fab (Fab, V domains shown)
VH: EVQLVQSGAEVKKPGASVKVSCKASGYTFTSYWMHWVRQAPGQRLEWMGEINPTNGRTNYIEKFKSRVTITRDTSASTAYMELSSLRSEDTAVYYCARGTRAYHYWGQGTMVTVSS
VL: DIQMTQSPSSLSASVGDRVTITCRASDNLYSNLAWYQQKPGKAPKLLLYDATNLADGVPSRFSGSGSGTDYTLTISSLQPEDFATYYCQHFWGTPLTFGQGTKVEIK
notes: Fab
Regarding B1, in test [1], the Kd amounted to 10.9 nM, the koff was 0.00699 s⁻¹ and the kon stood at 638000 M⁻¹ s⁻¹. Moreover, in [2], the Kd amounted to 73.9 nM, the koff was determined as 0.0373 s⁻¹ and the kon stood at 505000 M⁻¹ s⁻¹.

B2: Hu15G11.v3.Fab (Fab, V domains shown)
VH: B1 VH
VL: B1 VL with A43S, L48V
notes: Fab
In [1], B2 had a Kd of 7.26 nM, a koff of 0.00466 s⁻¹ and a kon of 642000 M⁻¹ s⁻¹. Further, in [2], binding was put at a Kd of 41.6 nM, the koff stood at 0.0201 s⁻¹ and the kon amounted to 483000 M⁻¹ s⁻¹.

B3: D101A (antibody, V domains shown)
VH: EVQLVQSGAEVKKPGASVKVSCKGSGYTFTDYAMHWVRQAPGQGLEWMGGISTYFGRTNYNQKFKGRVTMTVDTSISTAYMELSRLRSDDTAVYYCARGLSGNYVMAYWGQGTTVTVSS
VL: DIVMTQSPDSLAVSLGERATINCRASESVDSYGNSFMHWYQQKPGQPPKLLIYRASNLESGVPDRFSGSGSRTDFTLTISSLQAEDVAVYYCQQSNEAPPTFGQGTKLEIK
notes: also called 7A4.v15 D101A (CDR-H3) IgG; copies: 2 + 2
As for B3, the EC50 stood at 0.0173 µg/mL in test [3] and 0.0185 µg/mL in [4].

B4: N92A (antibody, V domains shown)
VH: B3 VH with A107D
VL: B3 VL with N96A
notes: also called 7A4.v15 N92A (CDR-L3) IgG
As for B4, the EC50 stood at 0.0087 µg/mL in test [3] and 0.0137 µg/mL in [4].

B5: L96A (antibody, V domains shown)
VH: B3 VH with L100A, A107D
VL: B3 VL
notes: also called 7A4.v15 L96A (CDR-H3) IgG; copies: 2 + 2
In the case of B5, the values for the EC50 in test [3] and in [4] were 0.0155 µg/mL and 0.0287 µg/mL, respectively.

B6: T97A (antibody, V domains shown)
VH: B3 VH with A107D
VL: B3 VL with T101A
notes: also called 7A4.v15 T97A (CDR-L3) IgG
As for B6, the EC50 in [3] stood at 0.012 µg/mL; in [4] it was 0.0226 µg/mL.

B7: G98A (antibody, V domains shown)
VH: B3 VH with G102A, A107D
VL: B3 VL
notes: also called 7A4.v15 G98A (CDR-H3) IgG; copies: 2 + 2
For the molecule B7, the EC50 is 0.0194 µg/mL in test [3] and 0.0247 µg/mL in [4].

B8: S91A (antibody, V domains shown)
VH: B3 VH with A107D
VL: B3 VL with S95A
notes: also called 7A4.v15 S91A (CDR-L3) IgG
As to B8, the EC50 amounted to 0.0113 µg/mL in test [3] and 0.0163 µg/mL in test [4].

B9: Q89A (antibody, V domains shown)
VH: B3 VH with A107D
VL: B3 VL with Q93A
notes: also called 7A4.v15 Q89A (CDR-L3) IgG
As to B9, the figures for the EC50 in test [3] and in test [4] were 0.0109 µg/mL and 0.0138 µg/mL, respectively.

B10: Hu7A4.v12.Fab (Fab, V domains shown)
VH: B3 VH with A107D
VL: B3 VL with A98G
notes: Fab
Regarding B10, in test [1], the Kd was 0.255 nM, the koff is 0.000844 s⁻¹ and the kon stood at 3.32e+06 M⁻¹ s⁻¹. In [2], this molecule gave a Kd of 1.9 nM, a koff of 0.00331 s⁻¹ and a kon of 1.74e+06 M⁻¹ s⁻¹.

B11: E93A (antibody, V domains shown)
VH: B3 VH with A107D
VL: B3 VL with E97A
notes: also called 7A4.v15 E93A (CDR-L3) IgG
Turning to B11, the results for the EC50 in test [3] and in [4] were 0.0122 µg/mL and 0.0176 µg/mL, respectively.

B12: P95A (antibody, V domains shown)
VH: B3 VH with A107D
VL: B3 VL with P99A
notes: also called 7A4.v15 P95A (CDR-L3) IgG
Take B12: the EC50 in [3] worked out at 0.0097 µg/mL; in test [4], 0.0159 µg/mL.

B13: Hu7A4.v9.Fab (Fab, V domains shown)
VH: B3 VH with G24A, V72R, A107D
VL: B3 VL with A98G
notes: Fab
In test [1], B13 registered a Kd of 0.401 nM, a koff of 0.000686 s⁻¹ and a kon of 1.71e+06 M⁻¹ s⁻¹. In test [2], this molecule had a Kd of 4.23 nM, a koff of 0.00342 s⁻¹ and a kon of 808000 M⁻¹ s⁻¹.

B14: M100bA (antibody, V domains shown)
VH: B3 VH with M106A, A107D
VL: B3 VL
notes: also called 7A4.v15 M100bA (CDR-H3) IgG; copies: 2 + 2
As for B14, the EC50 worked out at 0.0161 µg/mL in [3] and 0.0169 µg/mL in test [4].

B15: G95A (antibody, V domains shown)
VH: B3 VH with G99A, A107D
VL: B3 VL
notes: also called 7A4.v15 G95A (CDR-H3) IgG; copies: 2 + 2
As for B15, the figures for the EC50 in [3] and in test [4] were 0.0135 µg/mL and 0.0418 µg/mL, respectively.

B16: P96A (antibody, V domains shown)
VH: B3 VH with A107D
VL: B3 VL with P100A
notes: also called 7A4.v15 P96A (CDR-L3) IgG
Turning to B16, the EC50 is 0.01 µg/mL in test [3] and 0.0162 µg/mL in test [4].

B17: 6300 (antibody, V domains shown)
VH: QVQLVQSGAEVKKPGSSVKVSCKASGGTLSGYAISWVRQAPGQGLEWMGNIIPGFGTANYAQKSQGRVTITADESTSTAYMELSSLRSEDTAVYYCARSGGTRYGMLDVWGQGTMVTVSS
VL: EIVLTQSPATLSVSPGERATLSCRASQSVGSNLAWYQQKPGQAPRLLIYGASTRATGIPARFSGSGSGTEFTLTISSLQSEDFAVYYCQQSFLWPPRTFGGGTKVEIK
notes: anti-BACE1 IgG
With B17, the Kd in the test with human BACE1 ECD [5] was less than 0.8 nM; in the test with murine BACE1 ECD [6], less than 0.68 nM; in the test with human BACE1 ECD [7], less than 0.34 nM; with murine BACE1 ECD [8] it was less than 0.4 nM. The “IC50, Abeta x-40 in mouse cortical neurons” value in test [9] came to 9.1 nM. The “maximal % inhibition of Abeta x-40” value in test [9] amounted to 71%.

B18: 5903 (antibody, V domains shown)
VH: QLQLQESGPGLVKPSETLSLTCTVSGGSISSSSYYWGWIRQPPGKGLEWIGMIYYSGSTWYNPSLKSRVTISVDTSKNQFSLKLSSVTAADTAVYYCARVGHGISYFDLWGRGTLVTVSS
VL: EIVLTQSPATLSLSPGERATLSCRASQSVSSYLAWYQQKPGQAPRLLIYDASKRATGIPARFSGSGSGTDFTLTISSLEPEDFAVYYCQQVYTWPPRTFGGGTKVEIK
On to B18, for which, in test [10], the “EC50, FRET short substrate” value amounted to 3.12 nM and the “EC50, HTRF long substrate” value was 1.38 nM. In addition, in test [11], the “IC50, Abeta x-40 in mouse cortical neurons” value was found to be 1.63 nM; the “IC50, Abeta x-40 in mouse cortical neurons (5903*, second run)” value is 7.27 nM; the “maximal % inhibition of Abeta x-40” value is 72%.

B19: 5983 (antibody, V domains shown)
VH: B18 VH with M52N, W60Y, K66R, S81F, V100L, I104Y, S105N
VL: B18 VL with Y36F, K53N, T93V
notes: anti-BACE1 IgG
In the case of B19, the Kd with human BACE1 ECD [12] was 0.34 nM; with human BACE1 ECD [13], 0.35 nM; with murine BACE1 ECD [14], less than 0.24 nM. The “IC50, Abeta x-40 in mouse cortical neurons” value in [11] came out at 7.34 nM. Also, in test [11], the “maximal % inhibition of Abeta x-40” value is 72%.

The record behind these values is patent US20180057604A1 (Genentech, published 2018).
